{
  "source": "paper doi:10.1101/2023.06.02.543457",
  "about": "(bioRxiv, 2023)",
  "proteins": {"B1": {"name": "Rsph16 (natural protein, mouse, UniProt Q80Y75 1-316, looked up)", "chain": "MGLDYYAVLQVTRNSEDAQIKKAYRKLALKNHPLKSSEPGAPEIFKQIAEAYDVLSDPVKRGIYDKFGEEGLKGGIPLEFGSQTPWTTGYVFHGNPDKVFHEFFGGDNPFSEFFDAEGNDIDLNFGGLWGRGVQKQDPPIERDLYLSLEDLFFGCTKKIKISRRVLNEDRYSSTIKDKILTIDVRPGWRQGTRITFEKEGDQGPNIIPADIIFIVKEKLHPRFRREHDNLFFVYPIPLGKALTCCTVEVKTLDDRLLNIPINDIVHPKYFKIVPGEGMPLPENPSKKGDLFIFFDIQFPTRLTPQKKQMLRQALLT"}},
  "molecular_target": "the molecule itself",
  "assay": "cryo-EM structure",
  "data": [
    {"protein": "B1", "values": [
      {"measurement": "stoichiometry N", "result": 2}
    ]}
  ]
}
